Assay [1] deals with T1, human GPC3 on a cell membrane (human, UniProt P51654 25-554).
T1 construct: HepG2 and HuH-7 carry the endogenous protein; also called hGPC3; GPC3 on HepG2 cells, HuH-7 cells, MC-38/hGPC3 cells and Expi293F cells transiently expressing human GPC3
The assay can be described thus: FCM on HepG2 cells (GPC3-positive), APC anti-human IgG Fc, MFI [B].

Assay [2] deals with T2, human CD40 on cells (human, UniProt P25942 21-277).
T2 construct: Endogenous CD40 of Ramos cells (and of monocyte-derived dendritic cells); also called CD40 on Ramos cells; CD40 on human induced dendritic cells
Description: FCM on Ramos cells (CD40-positive, GPC3-negative), antibody at 0.01-10 µg/mL, APC anti-human IgG Fc, MFI [A]. As to the method: (§1) Ramos cells were suspended in SB at a cell density of 1×10⁶ cells/mL, and the suspension was dispensed in a 96-well round bottom plate (manufactured by Falcon, Inc.) at 100 μL/well.
(§2) After further centrifugation (2000 rpm, 4° C., 2 minutes), the supernatant was removed, and the pellet was washed 3 times with 200 μL/well of SB, and then, APC-conjugated AffiniPure F(ab′)₂ Goat Anti-Human IgG, Fcγ (manufactured by Jackson ImmunoResearch Laboratories, Inc.) diluted 100 times was added thereto at 100 μL/well, and the plate was incubated at ice temperature for 30 minutes. After washing twice with SB, the cells were suspended in 100 μL/well of SB, and the fluorescence intensity of each cell was measured using a flow cytometer FACSCANTO II (manufactured by Becton, Dickinson and Company).

For a further assay, the target named is T3, human CD40-GST protein (human, UniProt P25942 21-193).
T3 construct: not shown: GST region of the N5 vector
The assay can be described thus: phage ELISA, CD40-GST immobilised on the plate. As to the method: (§3) In the ELISA, MAXISORP (manufactured by NUNC, Inc.) in which the human or monkey CD40-GST in Example 1 was immobilized on each well and a portion to which the human or monkey CD40-GST is not bound was blocked using SuperBlock Blockig Buffer (manufactured by Thermo Fisher, Inc.) was used. To each well, each phage clone was added and reacted at room temperature for 30 minutes, and thereafter, each well was washed 3 times with PBS-T.
(§4) Subsequently, an anti-M13 antibody (manufactured by GE Healthcare, Inc.) labeled with horseradish peroxidase was diluted 5000 times with PBS-T containing 10% Block Ace (manufactured by Dainippon Pharmaceutical Co., Ltd.), and the resultant was added in an amount of 50 μL to each well, and incubated at room temperature for 30 minutes. After the microplate was washed four times with PBS-T, a TMB chromogenic substrate solution (manufactured by DAKO, Inc.) was added in an amount of 50 μL to each well and incubated at room temperature for 10 minutes.

In the next assay the target is T4, monkey CD40-GST protein (monkey, UniProt P25942 21-193 (human entry)).
T4 construct: it may begin with a signal peptide; not shown: GST region of the N5 vector
T4 chain: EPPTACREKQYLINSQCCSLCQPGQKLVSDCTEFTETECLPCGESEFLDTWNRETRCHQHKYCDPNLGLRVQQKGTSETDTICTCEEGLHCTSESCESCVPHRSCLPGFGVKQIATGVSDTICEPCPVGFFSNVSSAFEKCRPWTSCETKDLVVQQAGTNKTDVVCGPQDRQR
The assay can be described thus: phage ELISA, CD40-GST immobilised on the plate. The procedure:
as §3, §4

The target in assay [3] is T2, human CD40 on cells. The assay can be described thus: FCM on Ramos cells (CD40-positive, GPC3-negative). As to the method: as §1, §2
Assay [4] concerns the target T5, Human GPC3-His (manufactured by ACROBiosystems, Inc.) (human, UniProt P51654 25-559).
T5 construct: Bought protein; also called hGPC3-His; not shown: His tag
The assay can be described thus: SPR (Biacore T100), antibody captured on anti-human IgG, antigen as analyte, single cycle kinetics. The procedure: (§5) An anti-human IgG antibody was immobilized on a CMS sensor chip (manufactured by GE Healthcare, Inc.) using Human Antibody Capture Kit (manufactured by GE Healthcare, Inc.) according to the package insert. A test antibody prepared at 2 μg/mL was added to a flow cell for 10 seconds at a flow rate of 10 μL/min.
(§6) The measurement was performed by a single cycle kinetics method.

For assay [5], the target named is T2, human CD40 on cells. The assay can be described thus: FCM on Ramos cells (CD40-positive), MFI [B]. As to the method:
The reactivity of each of various bispecific antibodies produced in Example 16 with HepG2 cells and Ramos cells was evaluated by FCM in the same manner as in Example 7.

The target in assay [6] is T5, Human GPC3-His (manufactured by …). Description: SPR (Biacore T100), antibody captured on anti-human IgG, antigen as analyte, single cycle kinetics. The procedure: as §5, §6
(§7) The obtained sensorgram was analyzed using Bia Evaluation Software (manufactured by GE Healthcare, Inc.), and the kinetic constant of each antibody was calculated.
This is another data set of the same source.

The target in assay [7] is T2, human CD40 on cells. The assay can be described thus: FCM on Ramos cells (CD40-positive, GPC3-negative), APC anti-human IgG Fc, MFI [A]. As to the method: as §1, §2
Assay [8] deals with T5, Human GPC3-His (manufactured by …). Description: SPR (Biacore T100), antibody captured on anti-human IgG, antigen as analyte, single cycle kinetics; second run (Table 9). The procedure: as §5, §6
Assay [9] has the same target. Description: SPR (Biacore T100), antibody captured on anti-human IgG, antigen as analyte, single cycle kinetics; first run (Table 8). The procedure:
as §5, §6, §7

The values below come from patent US20220220216A1 (Kyowa Kirin, published 2022).

Where two headings read alike, the source gives them in different places.

T5 sequence (P51654 25-559 limits assumed): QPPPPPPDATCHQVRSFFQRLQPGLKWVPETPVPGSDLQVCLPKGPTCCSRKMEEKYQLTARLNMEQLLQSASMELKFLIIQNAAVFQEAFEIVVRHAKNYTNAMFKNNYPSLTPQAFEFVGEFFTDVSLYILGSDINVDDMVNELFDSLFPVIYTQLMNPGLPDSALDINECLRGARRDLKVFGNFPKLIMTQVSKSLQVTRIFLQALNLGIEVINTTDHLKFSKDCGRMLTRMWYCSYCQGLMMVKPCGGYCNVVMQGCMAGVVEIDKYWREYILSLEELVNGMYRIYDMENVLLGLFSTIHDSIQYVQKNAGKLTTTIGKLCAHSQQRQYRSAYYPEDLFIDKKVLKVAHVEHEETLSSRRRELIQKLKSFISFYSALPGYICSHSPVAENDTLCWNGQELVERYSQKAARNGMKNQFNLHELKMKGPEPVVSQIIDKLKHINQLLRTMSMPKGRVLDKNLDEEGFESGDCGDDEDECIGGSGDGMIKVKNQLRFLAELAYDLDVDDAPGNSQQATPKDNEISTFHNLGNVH
T1 sequence (P51654 25-554 limits assumed): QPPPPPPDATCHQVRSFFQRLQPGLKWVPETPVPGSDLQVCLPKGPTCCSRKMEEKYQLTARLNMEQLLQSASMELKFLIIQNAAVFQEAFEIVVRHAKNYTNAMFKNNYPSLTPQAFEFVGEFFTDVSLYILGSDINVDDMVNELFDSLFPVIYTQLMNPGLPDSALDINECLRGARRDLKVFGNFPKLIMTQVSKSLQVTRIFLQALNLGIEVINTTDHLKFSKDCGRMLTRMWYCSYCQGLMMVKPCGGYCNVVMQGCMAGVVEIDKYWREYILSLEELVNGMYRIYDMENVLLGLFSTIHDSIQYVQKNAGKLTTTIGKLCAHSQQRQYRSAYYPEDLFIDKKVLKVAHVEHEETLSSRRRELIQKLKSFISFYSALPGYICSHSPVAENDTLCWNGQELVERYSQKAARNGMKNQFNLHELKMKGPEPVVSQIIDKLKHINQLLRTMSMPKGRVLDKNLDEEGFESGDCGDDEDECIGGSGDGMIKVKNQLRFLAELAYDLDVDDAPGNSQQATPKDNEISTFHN

B1: anti-CD40 monoclonal antibody 21.4.1 (CP-870,893) (antibody, V domains shown)
VH: not shown
VL: DIQMTQSPSSVSASVGDRVTITCRASQGIYSWLAWYQQKPGKAPNLLIYTASTLQSGVPSRFSGSGSGTDFTLTISSLQPEDFATYYCQQANIFPLTFGGGTKVEIK
notes: Constant region of human IgG2 (N5KG2 vector); positive control agonistic anti-CD40 antibody
For B1, the binding result in assay [1] is “no binding (tested: 10 µg/mL)”.

B2: anti-CD40 monoclonal antibody R1090S55A (antibody, V domains shown)
VH: EVQLVQSGAEVKKPGESLKISCKGSGYSFIIYWIGWVRQMPGKGLEWMGIIYPNDADTRYSPSFQGQVTISADKSISTAYLQWSSLKASDTAMYYCVRLGTRDWFDPWGQGTLVTVSS
VL: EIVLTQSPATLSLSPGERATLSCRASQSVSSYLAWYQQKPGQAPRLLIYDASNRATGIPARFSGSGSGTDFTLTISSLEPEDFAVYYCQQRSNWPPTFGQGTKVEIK
For the molecule B2, the binding result with human CD40 on cells [2] is “binds”; in assay [1], “no binding (tested: 10 µg/mL)”.

B3: R1090S55A monoclonal phage clone (scFv displayed on M13 phage) (scFv, V domains shown)
VH: EVQLVQSGAEVKKPGESLKISCKGSGYSFIIYWIGWVRQMPGKGLEWMGIIYPNDADTRYSPSFQGQVTISADKSISTAYLQWSSLKASDTAMYYCVRLGTRDWFDPWGQGTLVTVSS
VL: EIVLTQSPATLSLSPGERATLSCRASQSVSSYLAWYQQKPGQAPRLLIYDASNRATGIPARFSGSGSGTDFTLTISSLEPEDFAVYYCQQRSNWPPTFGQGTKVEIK
notes: Form in the screening ELISA: scFv on phage (phagemid pCANTAB 5E); also called R1090S55A phage clone
As for B3, the binding result with human CD40-GST protein and in the assay with monkey CD40-GST protein was “binds” each time.

B4: anti-GPC3 antibody GPngs62 (antibody, human IgG4 S228P, kappa, V domains shown)
VH: EVQLVESGGGLVQPGGSLRLSCAASGFTFSSYARSWVRQAPGKGLEWVSAISGGGGRTYYADSVKGRFTISRDNSQNTLYLQMNSLRAEDTAVYYCAKNYYGSGSASYWYFDLWGRGTLVTVSS
VL: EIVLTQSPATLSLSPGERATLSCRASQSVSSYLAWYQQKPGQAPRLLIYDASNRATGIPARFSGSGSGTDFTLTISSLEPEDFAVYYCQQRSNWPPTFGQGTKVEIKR
notes: IgG4PE R409K; light chain with L6 as VL
Consider B4, for which, in the assay with human CD40 on cells [3], the binding result is “no binding (tested: 10 µg/mL)”. Further, in assay [4], binding was put at a Kd of 5.36 nM, the koff stood at 0.031 s⁻¹ and the kon turned out to be 5.74e+06 M⁻¹ s⁻¹.

B5: conventional anti-GPC3 antibody GC33 (IgG4PE R409K) (antibody, V domains shown)
VH: QVQLQQSGAELVRPGASVKLSCKASGYTFTDYEMHWVKQTPVHGLKWIGALDPKTGDTAYSQKFKGKATLTADKSSSTAYMELRSLTSEDSAVYYCTRFYSYTYWGQGTLVTVSA
VL: DVVMTQTPLSLPVSLGDQASISCRSSQSLVHSNGNTYLHWYLQKPGQSPKLLIYKVSNRFSGVPDRFSGSGSGTDFTLKISRVEAEDLGVYFCSQNTHVPPTFGSGTKLEIK
notes: Variable regions from WO 2006/006693; not shown: constant region of 'a κ chain'
Turning to B5, the binding result with human CD40 on cells [5] is “no binding (tested: 10 µg/mL)”. In assay [4], this molecule showed a Kd of 1.46 nM, a koff of 0.000299 s⁻¹ and a kon of 205000 M⁻¹ s⁻¹. In assay [6], this molecule had a Kd of 2.6 nM, a koff of 0.000378 s⁻¹ and an on-rate (kon) of 145000 M⁻¹ s⁻¹.

B6: anti-GPC3 antibody GpA6062 (antibody, human IgG4 S228P, kappa, V domains shown)
VH: EVQLVETGGGLVQPGGSLRLSCAASGFSFSSYAMNWVRQAPGKGLEWVSYITSGGSSRYYADSVKGRFTISRDNAKNSLYLQMNSLRDEDTAVYYCARGTYYYGSGNYFLFDYWGQGTTVTVSS
VL: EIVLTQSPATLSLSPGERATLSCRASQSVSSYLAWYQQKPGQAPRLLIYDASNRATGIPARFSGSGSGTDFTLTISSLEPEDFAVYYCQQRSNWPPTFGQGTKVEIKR
notes: as for B4
Consider B6, for which the binding result in the assay with human CD40 on cells [7] is “no binding (tested: 10 µg/mL)”. Besides, in assay [4], the Kd amounted to 6.33 nM, the off-rate (koff) amounted to 0.00175 s⁻¹ and the on-rate (kon) amounted to 276000 M⁻¹ s⁻¹.

B7: anti-GPC3 antibody GpA6005 (antibody, human IgG4 S228P, kappa, V domains shown)
VH: QVQLVESGGGLVQPGGSLRLSCAASGFTFSSYSMNWVRQAPGKGLEWVSYIKSSGSSTYYADSVKGRFTISRDNAKNSLNLQMNSLRDEDTAVYYCARGTYYYGSGNFFLFDYWGQGTLVTVSS
VL: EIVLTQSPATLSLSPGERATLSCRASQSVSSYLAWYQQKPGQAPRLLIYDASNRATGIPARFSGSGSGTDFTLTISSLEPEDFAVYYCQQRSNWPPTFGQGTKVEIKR
notes: as for B4
Take B7: in the assay with human CD40 on cells [7], the binding result is given as “no binding (tested: 10 µg/mL)”. In assay [4], this molecule showed a Kd of 0.762 nM, a koff of 0.000347 s⁻¹ and an on-rate (kon) of 456000 M⁻¹ s⁻¹.

B8: anti-GPC3 antibody GpA6014 (antibody, human IgG4 S228P, kappa, V domains shown)
VH: QMQLVQSGGGLVQPGGSLRLSCAASGFSFSSYAMNWVRQAPGKGLEWVSYITSGGSSRYYADSVKGRFTISRDNAKNSLYLQMNSLRDEDTAVYYCARGTYYYGSGNYFLFDHWGQGTMVTVSS
VL: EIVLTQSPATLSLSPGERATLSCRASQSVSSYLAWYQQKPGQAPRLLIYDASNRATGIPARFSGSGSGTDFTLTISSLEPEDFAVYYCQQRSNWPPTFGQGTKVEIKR
notes: as for B4
As to B8, the binding result with human CD40 on cells [7] is listed as “no binding (tested: 10 µg/mL)”. For the same molecule, in assay [4], the Kd amounted to 6.35 nM, the koff was found to be 0.00189 s⁻¹ and the kon stood at 297000 M⁻¹ s⁻¹.

B9: conventional anti-GPC3 antibody YP7 (IgG4PE R409K) (antibody, V domains shown)
VH: EVQLVETGGGMVQPEGSLKLSCAASGFTFNKNAMNWVRQAPGKGLEWVARIRNKTNNYATYYADSVKARFTISRDDSQSMLYLQMNNLKIEDTAMYYCVAGNSFAYWGQGTLVTVSA
VL: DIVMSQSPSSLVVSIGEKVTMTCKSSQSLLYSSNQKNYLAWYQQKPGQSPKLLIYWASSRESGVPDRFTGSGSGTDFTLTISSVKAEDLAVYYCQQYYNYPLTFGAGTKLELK
notes: Variable regions from WO 2013/181543; not shown: constant region of 'a κ chain'
As for B9, the binding result with human CD40 on cells [5] is listed as “no binding (tested: 10 µg/mL)”. For the same molecule, in [6], the equilibrium dissociation constant (Kd) was found to be 0.861 nM, the koff was determined as 0.000186 s⁻¹ and the association rate constant (kon) amounted to 217000 M⁻¹ s⁻¹.

B10: anti-GPC3 antibody GPngs18 (antibody, human IgG4 S228P, kappa, V domains shown)
VH: EVQLVESGGGLVQPGGSLRLSCAASGFTFSSYSMNWVRQAPGKGLEWVSYIRSDSRTIKYADSVKGRFTISRDNAKNSLFLQMNSLRDEDTAVYYCARWEWELDAFDIWGQGTMVTVSS
VL: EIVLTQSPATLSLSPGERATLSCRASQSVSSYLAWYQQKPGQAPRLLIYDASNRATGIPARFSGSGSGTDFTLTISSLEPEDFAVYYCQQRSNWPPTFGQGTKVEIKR
notes: as for B4
Take B10: the binding result with human CD40 on cells [3] was “no binding (tested: 10 µg/mL)”. Moreover, in assay [4], the equilibrium dissociation constant (Kd) turned out to be 0.39 nM, the koff is 0.000764 s⁻¹ and the kon is 1.96e+06 M⁻¹ s⁻¹.

B11: conventional anti-GPC3 antibody HN3 (IgG4PE R409K) (antibody, V domains shown)
VH: QVQLVQSGGGLVQPGGSLRLSCAASYFDFDSYEMSWVRQAPGKGLEWIGSIYHSGSTYYNPSLKSRVTISRDNSKNTLYLQMNTLRAEDTATYYCARVNMDRFDYWGQGTLVTVSS
notes: Variable region from WO 2012/145469
On to B11, for which the kon in [8] and in assay [9] was over 1e+07 M⁻¹ s⁻¹ each time. The binding result with human CD40 on cells [5] is “no binding (tested: 10 µg/mL)”. Moreover, the equilibrium dissociation constant (Kd) worked out at 24.4 nM in assay [4] and 13.2 nM in [6].
